assay: soluble on expression in E. coli; label from the status in PepcDB or PDB records

Row | Sequence | soluble on expression in E. coli
1 | GVADASDPIRPLVEALNAEAPLKLWSVLVTCLGDVSRDGVIEVSGVALSSFVERMGLQPQAMRVALHRLKRDGWVESRRLGRVGFHRLSDSALTQTRAVAGRIYGPGAGPAPWHLAGMPPDAPDGLSLLPDTLSATPISRRFALICGPLEDVPEDWLLTAPSGRGLPVWVQDVVVEAGCEAEFKALERTLAQIDKVPDTRLERFTLRVLVLHAWRRLILRSSPAAEAALGGARAEISCRARVHQLLDQLGSVEPDWDLPATEDAAS | soluble
2 | GVDRDYLQSEYGVLKAGQCYKVVRSFRDYRNINYERGDVMRFLGSNFVPYESGLSLFFDKNGSERQIMLCVRPEFQMEIAHHLDSYFCKLDDN | soluble
3 | GVFTYESEFTSEIPPPRLFKAFVLDADNLVPKIAPQAIKHSEILEGDGGPGTIKKITFGEGSQYGYVKHKIDSIDKENYSYSYTLIEGDALGDTLEKISYETKLVASPSGGSIIKSTSHYHTKGNVEIKEEHVKAGKEKASNLFKLIETYLKGHPDAYN | soluble
4 | GYQALEKYSRDLTALARAGKLDPVIGRDTEIRRAIQILSRRTKNNPILLGDPGVGKTAIVEGLAIKIVQGDVPDSLKGRKLVSLDLSSLIAGAKYRGDFEERLKSILKEVQDAEGQVVMFIDEIHTVVGAGAVAEGALDAGNILKPMLARGELRCIGATTVSEYRQFIEKDKALERRFQQILVEQPS | soluble
5 | HFVIRSPEDGANLVMEDMRFLTQEHFVCLYLNTKNQVIHKRTVFIGSLNSSIVHPREVFKEAFKRSAASFICVHNHPSGDPTPSREDIEVTRRLFECGNLIGIELLDHLVIGDKKFVSLKEKGYL | not soluble
6 | HGTELPSPPSVWFEAEFFHHILHWTPIPQQSESTCYEVALLRYGIESWNSISQCSQTLSYDLTAVTLDLYHSNGYRARVRAVDGSRHSQWTVTNTRFSVDEVTLTVGSVNLEIHNGFILGKIQLPRPKMAPAQDTYESIFSHFREYEIAIRKVPGQFTFTHKKVKHEQFSLLTSGEVGEFCVQVKPSVASRSNKGMWSKEECISLTRQYFTVTN | soluble
7 | HHHHHHSSGLVPRGSHMGGTGSGMTPGEAWKKQLNKLGKTQFEQYKRSCILEVDRTHARDSLENGIQNGIAVSRGSAKLRWMEERGYVKPTGIVVDLGCGRGGWSYYAASLKNVKKVMAFTLGVQGHEKPIMRTTLGWNLIRFKDKTDVFNMEVIPGDTLLCDIGESSPSIAVEEQRTLRVLNCAKQWLQEGNYTEFCIKVLCPYTPLIMEELSRLQLKHGGGLVRVPLSRNSTHEMYWVSGTRTDVVGTVSNVSRLLTRRMLNKPQPPTLEDDVILDMGTR | soluble
8 | HIKVGFSPEKLQPYTQLPSDFNEFWNKTKAEAARFPLTYTKEYVEKYSTDKIDCYLIRLQLNKQSQCIYGYLFYPKAEGKYPVVLCPPGAGIKTIKGPMRHKYYAEEGCIRFEIEIHGLNPELDEDTFGEISRAFSSRENGYLVNGLDSRENYYMKRVYLACVRSIDLLTSLPEWDGKNVIVQGGSQGGALALITAGLDKRVTACVANHPALSDMAGYKAGRAGGYPHLFKNTVDMDTPAKMKTLAYYDVVNFAKQITVPVYMTWGFNDNTCPPTTSYIVYNVLNCPKEALITPVNEHWTSEDTEYGHLLWIKKHLK | not soluble
9 | HMAEIYLAGGCFWGLEEYFSRISGVLETSVGYANGQVETTNYQLLKETDHAETVQVIYDEKEVSLREILLYYFRVIDPLSINQQGNDRGRQYRTGIYYQDEADLPAIYTVVQEQERMLGRKIAVEVEQLRHYILAEDYHQDYLRKNPSGYCHIDVTDADKPLIDAANYEKPSQEVLKASLSEESYRVTQEAATEAPFTNAYDQTFEEGIYVDITTGEPLFFAKDKFASGCGWPSFSRPLSKELIHYYKDLSHGMERIEVRSRSGSAHLGHVFTDGPRELGGLRYCINSASLRFVAKDEMEKAGYGYLLPYLNK | soluble
10 | HMVTLYTSPSSTSCRKARAWLEEHEIPFVERNIFSEPLSIDEIKQILRMTEDGTDEIISTRSKVFQKLNVNVESMPLQDLYRLINEHPGLLRRPIIIDEKRLQVGYNEDEIRRFLPRKVRSFQLREAQRLAN | soluble
11 | HNGDLYFSNVMLQDMQTDYSCNARFHFTHTIQQKNPFTLKVLTTRGVAERTPSFMYPQGTASSQMVLRGMDLLLECIASGVPTPDIAWYKKGGDLPSDKAKFENFNKALRITNVSEEDSGEYFCLASNKMGSIRHTISVRVKAAPYWLDEPKNLILAPGEDGRLVCRANGNPKPTVQWMVNGEPLQSAPPNPNREVAGDTIIFRDTQISSRAVYQCNTSNEHGYLLANAFVSVLDVPPRMLSPRNQLIRVILYNRTRLDCPFFGSPIPTLRWFKNGQGSNLDGGNYHVYENGSLEIKMIRKEDQGIYTCVATNILGKAENQVRLEVKDPTRIYRMPEDQVARRGTTVQLECRVKHDPSLKLTVSWLKDDEPLYIGNRMKKEDDSLTIFGVAERDQGSYTCVASTELDQDLAKAYLTVLGRPDRPRDLELTDLAERSVRLTWIPGDANNSPITDYVVQFEEDQFQPGVWHDHSKYPGSVNSAVLRLSPYVNYQFRVIAINEVGSSHPSLPSERYRTSGAPPESNPGDVKGEGTRKNNMEITWTPMNATSAFGPNLRYIVKWRRRETREAWNNVTVWGSRYVVGQTPVYVPYEIRVQAENDFGKGPEPESVIGYSGEDYPRAAPTEVKVRVMNSTAISLQWNRVYSDTVQGQLREYRAYYWRESSLLKNLWVSQKRQQASFPGDRLRGVVSRLFPYSNYKLEMVVVNGRGDGPRSETKEFTTPEGVPSAPRRFRVRQPNLETINLEWDHPEHPNGIMIGYTLKYVAFNGTKVGKQIVENFSPNQTKFTVQRTDPVSRYRFTLSARTQVGSGEAVTEESPAPPNEGRCMAAAPGVKGPS | soluble
12 | HPIFQRDGDDLHCEVPVRISQAALGDIVRVATLDGEAEIRIPAETQSGKLFRLRGKGVRSVRSRTEGDLYCRIVVETPVNLTAEQRKLLEQFEMTFAGEDARK | not soluble
13 | HPWRKGPFTVHDIHIDTEWRSDWKWDRLLPHITPLKNRSVLDVGCGNGYHMWRMLGEDARLCVGIDPSHLFLIQFEAIRKLMGNDQRAHLLPLGIEQLPELNAFDTVFSMGVLYHRRSPLDHLIQLKNQLVAGGELVLETLVIDGDENAVLMPVDRYAQMRNVYFFPSARALKVWLESVGFVDVKIVDECVTTTGEQRSTEWMKHNSLPEYLDPNDSTKTIEGHPAPKRAILIAKKPD | not soluble
14 | HWPPLGIVRDLWTESGIGPERVAVMERVAGPKCCLLGRQNDRPSGAAFVGLAGPFAMLHALEVTPALRRLGSAQAMIRRGACWAEAAGAHWFSLVVTTANAPARALYEALGMEEVGHYHYRLK | not soluble
15 | IAALSRDITPQQDGSVIVDASITIRHLNRMMGWSLPLIGPRTLSGLIIEHLGYIPPPDSCLVIDHYHIEILRVSDNMIRGVKMIKTN | not soluble
16 | IDFRGIEKQGGRVLIDVSDTGIPIDVTQVGKEIVVNFLNTKIPLNLMKRYDVSDFHSPVQIITMQQEGKKVRMTILSKGDYGHFVYQVNKQFMVDVFPLTAEEIR | not soluble
17 | IGNGGAERGTRNTLDIRTVAHREADGSYRIKGEKFYSTGALFAHWVSIKALDDNGKTVMAFIERGTQGLRIVDDWSGFGQRTTASGTVLLDDVSVPAKQVVP | not soluble
18 | ILAVLFANSVGNVLIERFNGVPAEERLHWRSFLVKLGADNLKGVKNEELLVACHKSVYIVYTMLGDVSIFLVGKDEYDELALAETIYIITAAVKDVCGKPPTERVFLDKYGRICLCLDEIVW | not soluble
19 | ILGYSYGYNGMEANVSKSDYEKHMSDLDTKKIKQDIKKAEKEADITIVMPQMGIEYQKKPTTEQVMLYHSMIKWGADIIFGGHPHVVEPSEVIKKDGQKKFIIYSMGNFISNQRLETVDDIWTE | not soluble
20 | ILTAGPTVDGRNIEQSVIDDIAETYDPKRYNARINEEHWSWSDKFGSVLSVEKRDDQLFAVLKPNSLLLSTIEKGQLLHTSCEIRANFQGTGKSYLTGLALTDEPASVGTTEMHLSAKEKNKDKSYFSSGATISKDDLSNNIDVDVQEDRKFLSRLKQLLSLGEPDKTQSLEESEDMNEELKELLQAQTAAVTALTAQVTSLAATLNKEESAPVEEENNETELAEKVDALSTKLDDVVTKLSNITDEPNRNLAGVDGDTEY | not soluble
21 | INIEIAYAFPERYYLKSFQVDEGITVQTAITQSGILSQFPEIDLSTNKIGIFSRPIKLTDVLKEGDRIEIYRPLLADPKEIRRK | not soluble
22 | INMEEIREFAKNFKIRRLSLGLTQTQVGQAMTATEGPAYSQSAISRFEKLDITPKSAQKLKPVLEKWLNEAELRNQEGQQNLMEFVGGEPSKKRKRRTSFTPQAIEALNAYFEKNPLPTGQEITEMAKELNYDREVVRVWFSNRRQTLKNT | soluble
23 | IPTKFVQKVTITKEGKKRVAPQLLTTLSA | soluble
24 | ISEFSDWQETLLEHLTQWVEAEIERDIAVDSHEESQRLLEATFNSPETFIGILDADGTLIRANETALGFIDADAADVCGEPFCETPWWNHDEAVANRCREAVERTRAGETVRFEAEHVGADGQRISTSVVARPVTAD | not soluble
25 | IVRPPFTYATLIRQAIMESSDRQLTLNEIYSWFTRTFAYFRRNAATWKNAVRHNLSLHKCFVRVENVKGAVWTVDEVEYQKRRSQKITGSPTL | soluble
26 | IVSFYQEQIIRSALALKLHQYEDTGGIIAAGTTSLPESDGATRNWDYRYCWMRDTYYTLQAFNTIGHFEESEKYFHYIENIVANELDRIQPLYTLDCSKKIEEIELDLEGYKGNKPVRVGNDAYTHIQNDVYGQILASITPLFTDRRLLHGNQFSTDIVYKLLAFIDKTMNEKDAGLWEFRHLKQLHCYTFLFHWVGAKSALKIGQLYGDHELIRKSTATIDKAAEMIERCYDPVRKVYTQAVGSTYLDASCIQLISMHYLDPSSEKARLHLKAIEEDLMVKDGLLFRYKHEDDFGKPEVTFLVCAFWYVDALASVGRIDDAIKAFESLLTYTNHVGLLSEDVGLDGSQWGNFPQTYSHVGLMNSAYRIAKKLDRPS | not soluble
27 | KALYSKPGSKNGRWNPETHKFCKCGVRIQTSAYTCSKCRNRSGENNSFFNHKHSDITKSKISEKMKGKKPSNIKKISCDGVIFDCAADAARHFKISSGLVTYRVKSDKWNWFYINA | soluble
28 | KDWEKVVYGFATLYICSFVLDQVVNSARQSVQFFIISNKYEEIGRHINEYPHRGVTIINATGFYTGREVKMMFVLAKKRESTIIFRLIKDIDPNAFVSQSAVIGVYGEGFDHIKVK | not soluble

From the DeepSol protein solubility set
